Columns and labels:
[1] = target: T1, dog iRhom1 full length wild type, T7-tagged (dog, UniProt A0A8I3MHT7 11-866); test: FACS on MEF-DKO-Dog-iR1-FL-WT-T7 cells
T1 construct: whole, on cells; also called Dog-iR1-FL-WT-T7; expressed by MEF-DKO-Dog-iR1-FL-WT-T7 cells
T1 sequence: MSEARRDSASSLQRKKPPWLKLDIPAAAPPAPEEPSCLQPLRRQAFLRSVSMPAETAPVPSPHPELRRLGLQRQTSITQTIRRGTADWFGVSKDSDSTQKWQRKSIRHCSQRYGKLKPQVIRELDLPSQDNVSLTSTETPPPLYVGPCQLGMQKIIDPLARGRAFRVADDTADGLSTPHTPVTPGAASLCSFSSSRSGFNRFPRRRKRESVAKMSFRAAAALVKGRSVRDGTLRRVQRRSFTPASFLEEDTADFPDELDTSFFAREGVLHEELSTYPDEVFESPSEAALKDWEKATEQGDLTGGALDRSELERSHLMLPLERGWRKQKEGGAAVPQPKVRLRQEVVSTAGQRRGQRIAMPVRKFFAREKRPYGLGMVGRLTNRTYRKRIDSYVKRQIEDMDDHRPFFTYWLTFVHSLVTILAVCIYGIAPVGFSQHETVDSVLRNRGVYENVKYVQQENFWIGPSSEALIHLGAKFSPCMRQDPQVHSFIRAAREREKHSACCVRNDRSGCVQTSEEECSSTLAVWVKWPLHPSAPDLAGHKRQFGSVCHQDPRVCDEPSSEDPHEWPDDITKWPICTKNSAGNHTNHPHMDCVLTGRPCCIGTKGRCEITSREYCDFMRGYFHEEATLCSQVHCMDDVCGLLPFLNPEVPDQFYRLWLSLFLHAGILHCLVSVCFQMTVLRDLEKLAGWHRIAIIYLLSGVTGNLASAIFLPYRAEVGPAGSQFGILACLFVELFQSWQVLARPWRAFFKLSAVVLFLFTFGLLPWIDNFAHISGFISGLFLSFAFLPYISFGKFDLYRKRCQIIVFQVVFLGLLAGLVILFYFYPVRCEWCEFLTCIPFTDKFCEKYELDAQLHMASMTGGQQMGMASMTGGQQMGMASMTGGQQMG
Description: (§1) In brief, immortalized MEF-DKO-EV control cells, MEF-DKO-rhesus-iR2-FL-WT-T7 cells, MEF-DKO-cyno-iR2-FL-WT-T7 cells, MEF-DKO-dog-iR2-FL-WT-T7 cells and MEF-DKO-rabbit-iR2-FL-WT-T7 cells, as well as their respective iRhom1 counterparts, were harvested with 10 mM EDTA in PBS, washed and resuspended in FACS buffer (PBS, 3% FBS, 0.05% sodium azide), and seeded in Nunc U-bottom 96-well plates (Thermo Fisher Scientific, USA) at approximately 3×10⁵ cells per well. To pellet cells and remove supernatants, the plates were centrifuged at 1,500 rpm and 4° C. for 3 minutes. For primary staining, cells were resuspended in 100 μl per well of either FACS buffer alone (controls), mouse monoclonal anti-T7 IgG (Merck Millipore, USA) at 3 μg/ml FACS buffer or the antibodies of the invention also at 3 μg/ml FACS buffer and incubated on ice for 1 hour. Afterwards, plates were centrifuged at 1,500 rpm and 4° C. for 3 minutes and washed twice with 200 μl per well of FACS buffer. For secondary staining of previous anti T7 staining, cells were spun down and resuspended in 100 μl per well of PE-conjugated goat anti-mouse IgG F(ab′)2 detection fragment (Dianova, Germany) diluted 1:100 in FACS buffer. For secondary staining of previous staining with humanized antibodies of invention, cells were spun down and resuspended in 100 μl per well of PE-conjugated goat anti-human IgG F(ab′)2 detection fragment (Dianova, Germany) diluted 1:100 in FACS buffer. Protected from light, the cell suspensions were incubated on ice for 1 hour. Plates were then centrifuged at 1,500 rpm and 4° C. for 3 minutes and washed three times with 200 μl per well of FACS buffer. Finally, cells were resuspended in 150 μl per well of FACS buffer and analyzed using a BD Accuri™ C6 Plus flow cytometer (Becton Dickinson, Germany).

[2] = target: T2, dog iRhom2 full length wild type C-terminally tagged with 3 consecutive copies of the T7 epitope (dog, UniProt Q00M95 1-827); test: FACS on MEF-DKO-Dog-iR2-FL-WT-T7 cells, 3 µg/ml
T2 construct: whole, on cells; also called dog-iR2-FL-WT-T7; expressed by MEF-DKO-Dog-iR2-FL-WT-T7 cells
T2 sequence: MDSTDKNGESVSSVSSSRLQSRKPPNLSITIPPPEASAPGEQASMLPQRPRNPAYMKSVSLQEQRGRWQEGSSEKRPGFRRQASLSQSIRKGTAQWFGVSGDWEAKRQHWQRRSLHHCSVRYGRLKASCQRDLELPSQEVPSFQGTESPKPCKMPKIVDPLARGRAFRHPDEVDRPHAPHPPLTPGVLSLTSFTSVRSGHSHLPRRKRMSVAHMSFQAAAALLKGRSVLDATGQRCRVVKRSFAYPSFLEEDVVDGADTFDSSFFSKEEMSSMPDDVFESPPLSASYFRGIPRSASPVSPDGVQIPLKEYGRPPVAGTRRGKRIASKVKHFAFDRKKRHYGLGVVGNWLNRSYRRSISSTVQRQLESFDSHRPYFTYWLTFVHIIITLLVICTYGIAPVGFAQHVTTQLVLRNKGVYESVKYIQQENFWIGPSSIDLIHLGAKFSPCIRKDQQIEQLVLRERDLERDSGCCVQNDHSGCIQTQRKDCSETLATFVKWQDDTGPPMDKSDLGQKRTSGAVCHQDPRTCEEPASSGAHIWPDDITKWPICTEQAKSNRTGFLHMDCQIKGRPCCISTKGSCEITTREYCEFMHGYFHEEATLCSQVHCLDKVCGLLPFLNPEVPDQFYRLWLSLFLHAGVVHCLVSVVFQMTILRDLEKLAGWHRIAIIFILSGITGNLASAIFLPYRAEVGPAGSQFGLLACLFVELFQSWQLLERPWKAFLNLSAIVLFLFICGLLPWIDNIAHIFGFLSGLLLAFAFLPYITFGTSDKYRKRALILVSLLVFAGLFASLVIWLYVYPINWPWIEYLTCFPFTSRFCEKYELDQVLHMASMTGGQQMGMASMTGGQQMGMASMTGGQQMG
Description: as §1

Row | Binder | binding result [1] | binding result [2]
1 | humanized antibody 16-B-07 (antibody, V domains shown, Tested as whole humanized antibody produced in CHO cells and detected with anti-human IgG; the general methods speak of human IgG1/Kappa; also called clone 16-B-07) VH: QVTLRESGPALVKPTQTLTLTCTFSGFSLSTFALGVGWIRQPPGKALEWLAHIWWDEDKYYNPALKSRLTISKDTSKNQVVLTITNMDPVDTATYYCARITTYYYGMDYWGQGTLVTVSS VL: EIVMTQSPDFQSVTPKEKVTITCRASQSIGNHLHWYQQKPDASPKLLIKYASQSISGVPSRFSGSGSGTDFTLTINSLEAEDAATYFCQQSYQWPLTFGQGTKLEIK | no binding (tested: 3 µg/ml) | binds
2 | humanized antibody 16-B-03 (antibody, V domains shown, Tested as whole humanized antibody produced in CHO cells and detected with anti-human IgG; the general methods speak of human IgG1/Kappa; also called clone 16-B-03) VH: QVTLRESGPALVKPTQTLTLTCTFSGFSLSTFALGVGWIRQPPGKALEWLAHIWWDDDKYYNPALKSRLTISKDTSKNQVVLTITNMDPVDTATYYCARITTYYYGMDYWGQGTLVTVSS VL: EIVMTQSPDFQSVTPKEKVTITCRASQSIGNHLHWYQQKPDASPKLLIKYASQSISGVPSRFSGSGSGTDFTLTINSLEAEDAATYFCQQSYQWPLTFGQGTKLEIK | no binding (tested: 3 µg/ml) | –
3 | humanized antibody 16-B-05 (antibody, V domains shown, Tested as whole humanized antibody produced in CHO cells and detected with anti-human IgG; the general methods speak of human IgG1/Kappa; The printed LCVD reads SRESGSG where the printed cDNA encodes SRFSGSG; also called clone 16-B-05) VH: QVTLRESGPALVKPTQTLTLTCTFSGFSLSTFALGVGWIRQPPGKALEWLAHIWWDEDKYYNPALKSRLTISKDTSKNQVVLTITNMDPVDTATYYCARITTYYYGMDYWGQGTLVTVSS VL: EIVMTQSPDFQSVTPKEKVTITCRASQSIGNHLHWYQQKPDASPKLLIKYASQSISGVPSRFSGSGSGTDFTLTINSLEAEDAATYFCQQSYNWPLTFGQGTKLEIK | no binding (tested: 3 µg/ml) | binds
4 | humanized antibody 42-B-04 (antibody, V domains shown, Tested as whole humanized antibody produced in CHO cells and detected with anti-human IgG; the general methods speak of human IgG1/Kappa; also called clone 42-B-04) VH: QVTLRESGPALVKPTQTLTLTCTFSGFSLSTFGRGVGWIRQPPGKALEWLAHIWWDDEKYYNSALKSRLTISKDTSKNQVVLTITNMDPVDTATYYCARIQNYGSNYWYFDVWGQGTLVTVSS VL: AIQLTQSPSSLSASVGDRVTITCRASSRISYMFWYQQKPGKAPKVLIYDTSNLASGVPSRFSGSGSGTDYTLTISSLQPEDFATYYCQQWNAYPLTFGQGTKLEIK | no binding (tested: 3 µg/ml) | binds
5 | humanized antibody 23-B-04 (antibody, V domains shown, Tested as whole humanized antibody produced in CHO cells and detected with anti-human IgG; the general methods speak of human IgG1/Kappa; also called clone 23-B-04) VH: QVTLRESGPALVKPTQTLTLTCTFSGFSLSTFGMGVGWIRQPPGKALEWLAHIWWDDEKYYNSALKSRLTISKDTSKNQVVLTITNMDPVDTATYYCARISNYGSNYWYFNVWGQGTLVTVSS VL: AIQLTQSPSSLSASVGDRVTITCRASSSVSYMYWYQQKPGKAPKVLIYDTSNLASGVPSRFSGSGSGTDYTLTISSLQPEDFATYYCQQWNAYPLTFGQGTKLEIK | no binding (tested: 3 µg/ml) | binds
6 | humanized antibody 42-B-02 (antibody, V domains shown, Tested as whole humanized antibody from transient expression of heavy chain/kappa light chain pairs in CHO cells, detected with anti-human IgG; the general methods speak of human IgG1/Kappa; also called clone 42-B-02) VH: QVTLRESGPALVKPTQTLTLTCTFSGFSLSTFGRGVGWIRQPPGKALEWLAHIWWDDEKYYNSALKSRLTISKDTSKNQVVLTITNMDPVDTATYYCARIQNYGSNYWYFDVWGQGTLVTVSS VL: AIQLTQSPSSLSASVGDRVTITCRASSRISYMFWYQQKPGKAPKVLIYDTSNLASGVPSRFSGSGSGTDYTLTISSLQPEDFATYYCQQWNSYPLTFGQGTKLEIK | no binding (tested: 3 µg/ml) | binds

Reference: US20240166767A1 (SCIRHOM, published 2024)
